# Experiments:
# AncSZ = assay: phosphorylation enrichment, bacterial display (enrichment ratio); higher = better substrate or ligand; peptides without Tyr show the background
# EPHB1 = EPHB1 (UniProt P54762); assay: as above
# EPHB2 = EPHB2 (UniProt P29323); assay: as above
# FGFR1 = FGFR1 (UniProt P11362); assay: as above
# FGFR3 = FGFR3 (UniProt P22607); assay: as above
# Fer (mouse) = assay: as above
# Fes = Fes (UniProt P07332); assay: as above
# Fyn = Fyn (UniProt P06241); assay: as above
# Hck = Hck (UniProt P08631); assay: as above
# Jak2 = Jak2 (UniProt O60674); assay: as above
# Chain of Jak2 (O60674 whole entry, looked up): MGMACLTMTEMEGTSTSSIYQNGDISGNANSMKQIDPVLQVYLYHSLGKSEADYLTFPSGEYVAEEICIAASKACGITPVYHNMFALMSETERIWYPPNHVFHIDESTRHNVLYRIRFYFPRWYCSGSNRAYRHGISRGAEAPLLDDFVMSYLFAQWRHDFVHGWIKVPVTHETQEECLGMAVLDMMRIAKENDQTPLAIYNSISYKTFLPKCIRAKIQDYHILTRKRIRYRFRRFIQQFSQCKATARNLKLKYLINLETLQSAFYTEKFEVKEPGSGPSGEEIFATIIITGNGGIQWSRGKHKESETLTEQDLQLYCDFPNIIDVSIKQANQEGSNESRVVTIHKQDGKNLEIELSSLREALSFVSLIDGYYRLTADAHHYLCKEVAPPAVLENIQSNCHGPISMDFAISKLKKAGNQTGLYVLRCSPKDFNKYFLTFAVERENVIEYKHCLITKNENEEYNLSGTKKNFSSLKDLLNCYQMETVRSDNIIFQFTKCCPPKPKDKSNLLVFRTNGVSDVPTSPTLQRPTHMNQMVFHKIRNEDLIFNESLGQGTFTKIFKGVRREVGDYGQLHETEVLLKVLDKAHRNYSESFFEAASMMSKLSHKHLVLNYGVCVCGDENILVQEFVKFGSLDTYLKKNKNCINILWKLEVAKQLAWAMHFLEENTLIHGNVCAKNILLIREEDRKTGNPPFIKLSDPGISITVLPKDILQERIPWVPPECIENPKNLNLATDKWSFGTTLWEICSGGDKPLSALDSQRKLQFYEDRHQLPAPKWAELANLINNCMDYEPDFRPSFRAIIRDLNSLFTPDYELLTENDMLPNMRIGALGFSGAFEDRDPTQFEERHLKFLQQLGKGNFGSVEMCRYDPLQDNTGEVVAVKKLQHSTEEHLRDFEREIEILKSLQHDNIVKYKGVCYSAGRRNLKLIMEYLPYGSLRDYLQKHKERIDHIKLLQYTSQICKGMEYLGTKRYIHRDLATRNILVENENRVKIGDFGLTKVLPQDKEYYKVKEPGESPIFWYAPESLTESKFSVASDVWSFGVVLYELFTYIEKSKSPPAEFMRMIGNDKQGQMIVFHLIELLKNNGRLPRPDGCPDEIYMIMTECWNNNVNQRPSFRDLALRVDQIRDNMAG
# MERTK = MERTK (UniProt Q12866); assay: as above
# Chain of MERTK (Q12866 whole entry, looked up): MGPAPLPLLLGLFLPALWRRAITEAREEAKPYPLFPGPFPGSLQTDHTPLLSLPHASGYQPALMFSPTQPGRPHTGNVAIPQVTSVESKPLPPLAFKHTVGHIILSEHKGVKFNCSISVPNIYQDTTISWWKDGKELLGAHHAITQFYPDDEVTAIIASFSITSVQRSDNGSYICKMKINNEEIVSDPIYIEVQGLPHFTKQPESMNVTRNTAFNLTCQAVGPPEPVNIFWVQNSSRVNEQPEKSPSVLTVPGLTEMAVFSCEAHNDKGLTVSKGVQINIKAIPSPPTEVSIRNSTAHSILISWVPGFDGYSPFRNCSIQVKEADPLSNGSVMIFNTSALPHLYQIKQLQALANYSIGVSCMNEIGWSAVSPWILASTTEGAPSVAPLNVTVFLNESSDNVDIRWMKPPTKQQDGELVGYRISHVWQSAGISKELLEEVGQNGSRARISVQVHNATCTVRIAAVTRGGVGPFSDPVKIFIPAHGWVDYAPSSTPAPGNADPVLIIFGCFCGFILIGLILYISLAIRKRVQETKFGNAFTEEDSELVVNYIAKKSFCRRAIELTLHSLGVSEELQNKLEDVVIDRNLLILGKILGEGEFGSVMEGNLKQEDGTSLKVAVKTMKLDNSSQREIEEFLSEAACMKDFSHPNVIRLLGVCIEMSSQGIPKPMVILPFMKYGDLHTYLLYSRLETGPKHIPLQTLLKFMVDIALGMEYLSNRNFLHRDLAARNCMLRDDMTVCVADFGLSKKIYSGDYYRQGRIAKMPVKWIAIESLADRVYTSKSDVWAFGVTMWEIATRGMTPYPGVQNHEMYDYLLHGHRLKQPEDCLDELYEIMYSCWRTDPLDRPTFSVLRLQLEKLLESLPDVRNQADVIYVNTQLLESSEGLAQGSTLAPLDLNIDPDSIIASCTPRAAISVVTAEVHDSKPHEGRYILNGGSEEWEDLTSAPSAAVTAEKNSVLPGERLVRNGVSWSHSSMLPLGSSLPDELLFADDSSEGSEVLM
# c-Abl (mouse) = assay: as above
# c-Src = assay: as above
# Grb2 SH2 = Grb2 SH2 (UniProt P62993); assay: SH2 binding enrichment of the phosphorylated peptide, bacterial display (enrichment ratio); higher = better substrate or ligand; peptides without Tyr show the background
# Chain of Grb2 SH2 (P62993 whole entry, looked up): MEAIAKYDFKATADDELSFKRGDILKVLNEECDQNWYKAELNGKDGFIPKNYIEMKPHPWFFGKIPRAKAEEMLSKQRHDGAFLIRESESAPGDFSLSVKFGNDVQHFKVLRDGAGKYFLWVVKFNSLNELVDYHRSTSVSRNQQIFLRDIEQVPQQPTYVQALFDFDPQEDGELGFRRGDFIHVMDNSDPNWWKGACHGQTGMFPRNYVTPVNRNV
# SHP2-C SH2 = assay: as above
# c-Src SH2 = assay: as above
# 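Wherever SH2 binding enrichment of the phosphorylated peptide, bacterial display is given: peptide library displayed on the E. coli surface as eCPX fusions, selected cells deep-sequenced, score is each peptide's frequency after selection divided by its frequency in the input.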
# 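Wherever phosphorylation enrichment, bacterial display is given: 11-residue human phosphosite peptides and single-mutation variants displayed on the E. coli surface, counted by deep sequencing, each peptide's frequency after selection divided by its frequency in the unselected input library; frequency after pTyr selection over input frequency; kinase dosed for 20-30% of maximal phosphorylation in three min.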
# Chain of EPHB1 (P54762 whole entry, looked up): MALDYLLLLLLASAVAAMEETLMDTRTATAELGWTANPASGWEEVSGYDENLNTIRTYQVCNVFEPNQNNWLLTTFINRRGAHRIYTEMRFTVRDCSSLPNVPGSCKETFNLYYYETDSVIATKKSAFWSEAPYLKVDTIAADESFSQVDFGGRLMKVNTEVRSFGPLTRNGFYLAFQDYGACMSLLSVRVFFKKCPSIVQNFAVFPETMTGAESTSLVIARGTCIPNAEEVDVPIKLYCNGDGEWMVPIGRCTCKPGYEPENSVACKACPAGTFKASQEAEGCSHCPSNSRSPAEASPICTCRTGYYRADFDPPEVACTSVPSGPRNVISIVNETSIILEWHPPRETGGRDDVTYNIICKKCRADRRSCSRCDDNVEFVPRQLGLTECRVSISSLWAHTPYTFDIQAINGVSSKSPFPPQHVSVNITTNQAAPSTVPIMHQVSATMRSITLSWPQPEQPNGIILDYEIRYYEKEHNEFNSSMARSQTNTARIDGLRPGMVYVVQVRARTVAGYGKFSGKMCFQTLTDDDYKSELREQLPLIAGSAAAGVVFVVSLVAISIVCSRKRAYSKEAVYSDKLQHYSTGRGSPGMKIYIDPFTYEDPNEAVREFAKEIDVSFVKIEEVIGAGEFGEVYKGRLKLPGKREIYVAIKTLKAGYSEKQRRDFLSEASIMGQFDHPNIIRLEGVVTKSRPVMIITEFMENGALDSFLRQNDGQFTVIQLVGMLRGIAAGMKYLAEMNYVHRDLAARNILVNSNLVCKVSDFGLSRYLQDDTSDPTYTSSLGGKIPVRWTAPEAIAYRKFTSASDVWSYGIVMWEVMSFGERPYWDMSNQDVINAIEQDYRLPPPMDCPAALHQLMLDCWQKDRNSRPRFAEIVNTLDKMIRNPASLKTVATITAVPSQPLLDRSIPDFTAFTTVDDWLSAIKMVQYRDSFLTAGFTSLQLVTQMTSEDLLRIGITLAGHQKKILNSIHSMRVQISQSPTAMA
# Chain of FGFR1 (P11362 whole entry, looked up): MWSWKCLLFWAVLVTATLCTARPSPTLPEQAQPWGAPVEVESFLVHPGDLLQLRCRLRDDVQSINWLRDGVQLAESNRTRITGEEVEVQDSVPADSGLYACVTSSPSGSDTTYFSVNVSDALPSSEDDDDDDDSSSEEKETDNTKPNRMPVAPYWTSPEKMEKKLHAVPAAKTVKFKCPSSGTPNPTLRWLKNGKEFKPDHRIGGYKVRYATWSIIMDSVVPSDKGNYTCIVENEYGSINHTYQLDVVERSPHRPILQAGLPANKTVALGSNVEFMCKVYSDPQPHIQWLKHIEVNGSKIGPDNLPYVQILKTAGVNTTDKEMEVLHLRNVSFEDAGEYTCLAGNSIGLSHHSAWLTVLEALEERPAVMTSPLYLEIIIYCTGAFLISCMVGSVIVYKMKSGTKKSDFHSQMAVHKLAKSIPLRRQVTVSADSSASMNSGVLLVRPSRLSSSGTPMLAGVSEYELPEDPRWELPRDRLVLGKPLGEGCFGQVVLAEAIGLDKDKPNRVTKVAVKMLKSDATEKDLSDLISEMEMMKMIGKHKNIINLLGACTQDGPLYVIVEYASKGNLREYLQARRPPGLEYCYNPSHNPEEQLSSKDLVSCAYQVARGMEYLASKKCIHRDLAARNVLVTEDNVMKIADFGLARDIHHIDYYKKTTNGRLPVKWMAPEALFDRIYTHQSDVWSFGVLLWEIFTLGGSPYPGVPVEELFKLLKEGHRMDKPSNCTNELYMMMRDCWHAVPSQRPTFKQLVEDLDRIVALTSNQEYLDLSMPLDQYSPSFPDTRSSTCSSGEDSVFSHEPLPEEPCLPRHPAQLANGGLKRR
# Chain of Fes (P07332 whole entry, looked up): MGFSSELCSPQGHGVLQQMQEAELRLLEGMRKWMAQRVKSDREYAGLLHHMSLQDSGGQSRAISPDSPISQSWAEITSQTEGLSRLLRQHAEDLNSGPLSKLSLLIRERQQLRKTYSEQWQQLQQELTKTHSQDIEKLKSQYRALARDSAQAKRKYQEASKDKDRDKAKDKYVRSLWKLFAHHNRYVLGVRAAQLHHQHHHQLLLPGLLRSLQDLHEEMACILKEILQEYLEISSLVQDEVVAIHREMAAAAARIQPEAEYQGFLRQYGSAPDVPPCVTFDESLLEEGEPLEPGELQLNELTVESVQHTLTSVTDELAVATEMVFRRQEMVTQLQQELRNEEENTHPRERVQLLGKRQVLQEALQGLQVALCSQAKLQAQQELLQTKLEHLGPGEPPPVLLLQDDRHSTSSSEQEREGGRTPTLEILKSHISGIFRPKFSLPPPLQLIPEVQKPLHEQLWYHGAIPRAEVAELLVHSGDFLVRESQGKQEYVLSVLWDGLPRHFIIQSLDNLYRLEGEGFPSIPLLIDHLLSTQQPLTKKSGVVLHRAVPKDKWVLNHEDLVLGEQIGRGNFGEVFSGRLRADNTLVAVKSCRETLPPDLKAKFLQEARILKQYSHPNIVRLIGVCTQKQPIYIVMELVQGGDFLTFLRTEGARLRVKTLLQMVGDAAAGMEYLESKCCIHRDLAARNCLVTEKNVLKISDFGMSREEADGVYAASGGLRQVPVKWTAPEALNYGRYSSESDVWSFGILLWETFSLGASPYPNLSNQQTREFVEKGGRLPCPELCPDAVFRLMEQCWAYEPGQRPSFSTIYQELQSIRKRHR
Sequence,phosphorylation enrichment (AncSZ),phosphorylation enrichment (EPHB1),phosphorylation enrichment (EPHB2),phosphorylation enrichment (FGFR1),phosphorylation enrichment (FGFR3),phosphorylation enrichment (Fer (mouse)),phosphorylation enrichment (Fes),phosphorylation enrichment (Fyn),phosphorylation enrichment (Hck),phosphorylation enrichment (Jak2),phosphorylation enrichment (MERTK),phosphorylation enrichment (c-Abl (mouse)),phosphorylation enrichment (c-Src),SH2 binding enrichment (Grb2 SH2),SH2 binding enrichment (SHP2-C SH2),SH2 binding enrichment (c-Src SH2)
GFILMYDITNK [RAB3C_Y110_E115K],1.59,1.15,1.14,0.617,1.17,0.724,2.04,0.529,0.591,1.83,0.835,1.21,0.575,0.944,0.727,0.5
GFSDPYVKAFL [SYT3_Y470_S474F],0.693,0.595,0.577,0.535,0.729,0.565,1,0.481,0.466,0.898,0.472,0.772,0.497,0.897,0.686,0.51
GFSRHYEDGFP [CTNND1_Y217_YF],0.619,0.432,0.451,0.352,0.563,0.574,0.739,0.428,0.435,0.608,0.442,0.405,0.335,0.708,0.564,1.44
GGDVIYKGFED [NFU1_Y194],0.871,0.425,0.491,0.499,0.629,0.395,0.887,3.25,0.951,0.924,0.466,0.663,2.75,0.822,0.625,0.427
GGFTRYCDGKK [PROS1_Y266_C265R_YF],0.771,0.393,0.315,0.369,0.449,0.436,0.722,0.368,0.403,0.653,0.403,0.601,0.423,0.972,0.881,0.753
GGFTWYCDGKK [PROS1_Y266_C265W_YF],1.08,0.651,0.605,0.432,0.833,0.438,1.23,0.328,0.389,1.2,0.29,0.928,0.299,0.761,0.511,0.37
GGYNNYGYGND [HNRNPH3_Y159],0.802,1.92,3.79,0.66,0.688,0.672,0.849,0.805,0.556,0.808,0.565,1.24,0.456,1.22,0.571,0.934
GHLYAYDWISI [BEST1_Y227],1.98,6.51,5.04,8.88,6.48,15,3.56,2.24,2.99,0.923,9.38,0.848,2.38,1.56,1.31,1.76
GHNDVYISKHV [GRIN2A_Y1423_E1426K],0.373,0.254,0.333,0.323,0.364,0.313,0.536,0.423,0.412,0.391,0.347,0.376,0.352,0.79,0.651,0.395
GITVTYTIPKK [UBA5_Y372_A371T],0.933,0.537,0.557,0.522,0.563,0.497,0.96,0.413,0.54,0.994,1.49,2.12,0.4,0.862,3.64,1.26
GKGGSYSQAAS [HLA-B_Y344_C349S],0.548,0.47,0.41,0.515,0.52,0.441,0.819,0.362,0.462,0.651,0.493,0.622,0.529,0.609,0.785,0.434
GKPENYRRLDI [VHL_Y175_V170G],0.452,0.317,0.285,0.335,0.376,0.301,0.598,0.295,0.327,0.539,0.337,0.457,0.353,0.755,0.754,0.508
GKTQQYECKWF [BCR_Y751_D752E_YF],0.818,0.509,0.603,0.545,0.627,0.572,1.06,0.509,0.569,0.793,0.467,0.614,0.472,0.694,0.529,0.488
GLDGSYLPRDS [SH2D1A_Y29_L31P],0.663,0.44,0.4,0.418,0.446,0.419,0.624,0.356,0.55,0.534,0.416,0.513,0.418,0.879,0.483,0.557
GLGGVYGGASG [KRT8_Y54_G53V],0.514,0.445,0.355,0.448,0.52,0.418,0.661,0.566,0.669,0.587,0.445,0.577,0.702,0.705,0.709,0.385
GLQDEYDFKCK [STAT1_Y170_D165G],1.09,0.509,0.63,0.626,0.555,0.467,1.12,0.453,0.597,1.18,0.453,0.831,0.543,0.709,0.74,0.559
